The values that follow come from PMC7504508.

pKd: −log10 of the molar value. Like-named read-outs stand apart in the source and are kept apart here.

Usually pKd stands for the Kd on a negative log10 scale, so that one unit is a factor of ten. Low values mean a high Kd, high ones a low Kd.

Experiment [1] deals with GST-Sumo fusion protein of the perch Cx35 C-terminal domain (251-304) V267A (perch). The experiment in a line: SPR; GST-Sumo-Cx35 fusion proteins captured by immobilised anti-GST antibodies on a CM5 chip (Biacore 2000); calmodulin as analyte, 3 nM to 30 µM; GST-Sumo reference flowcell subtracted; 1 mM free Ca2+, 0.5 mM free Mg2+, 140 mM KCl, 10 mM MOPS pH 7.2, 0.05% Tween 20; first order ligand binding …. A general note: In SPR one partner is held on a chip, and binding of the other changes the refractive index at the surface.

Experiment [2] has as its target GST-Sumo fusion protein of the perch Cx35 C-terminal domain (251-304) V270A, Q271A (perch). The experiment is described as above.
Experiment [3] addresses GST-Sumo fusion protein of the perch Cx35 C-terminal domain (251-304) R268A (perch). Described as above.
Experiment [4] concerns the target GST-Sumo fusion protein of the perch Connexin 35 C-terminal domain (amino acids 251-304), wild type (perch). The description is as above.
Experiment [5] has as its target GST-Sumo fusion protein of the perch Cx35 C-terminal domain (251-304) I277A (perch). Described as above.
The target in experiment [6] is GST-Sumo fusion protein of the perch Connexin 35 C-terminal domain (amino acids 251-304), wild type (perch). The experiment is described as above. The source holds these as a separate data set.
Experiment [7] has the same target.

Consider “calmodulin (from UniProt P0DP23 1-149) (natural protein)”, for which the negative logarithm of the Kd (pKd) in experiment [1] is 5.27; in experiment [2] it was 5.92; in experiment [3] it was 5.61; in experiment [4], 5.86; in experiment [5], 5.90; in experiment [6], 5.84. In experiment [7], this substance returned a reduction of Neurobiotin tracer coupling by 5 µM ionomycin in transiently transfected HeLa cells (full-length untagged Cx35 wild type in the cells) of 67%.
